± gives the uncertainty stated by the source.
Experiment: self-splicing fitness, log relative to wild type (ln ratio); higher = more splicing; Tetrahymena group I intron in knt gene, E. coli kanamycin selection, DiMSum; sequences stand for … in CUCUCU…GGAGGGAAAAGUUAUCAGGCAUGCACCUGGUAGCUAGUCUUUAAACCAAUAGAUUGCAUCGGUUUAAAAGGCAAGACCGUCAAAUUGCGGGAAAGGGGUCAACAGCCGUUCAGUACCAAGUCUCAGGGGAAACUUUGAGAUGGCCUUGCAAAGGGUAUGGUAAUAAGCUGACGGACAUGGUCCUAACCACGCAGCCAAGUCCUAAGUCAACAGAUCUUCUGUUGAUAUGGAUGCAGUUCACAGACUAAAUGUCGGUCGGGGAAGAUGUAUUCUUCUCAUAAGAUAUAGUCGGACCUCUCCUUAAUGGGAGCUAGCGGAUGAAGUGAUGCAACACUGGAGCCGCUGGGAACUAAUUUGUAUGCGAAAGUAUAUUGAUUAGUUUUGGAGUACUCGUGGUCG
In short: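 Fitness was computed with DiMSum as the error-weighted combination of replicate fold changes, kanamycin versus none, each normalised to wild type. The library randomised all eight intron nucleotides of the P1ex region, with the intron placed in the knt kanamycin-resistance gene on pET-22b(+) in E. coli BL21(DE3). Six replicate transformations were grown overnight at 37°C or 30°C on LB agar with or without 25 μg/mL kanamycin, plus 100 μg/mL carbenicillin, 50 μM IPTG and 0.2% rhamnose. Pooled colonies were amplicon-sequenced on an Illumina HiSeq 2500.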

Question: For GGGUAGCAAUAUUACGGACU, which “self-splicing fitness (ln)” value (30 °C) is on record?
Answer: -0.272 ± 0.19

Question: And the “self-splicing fitness (ln)” value (37 °C)?
Answer: 0.331 ± 0.24

Question: Which “self-splicing fitness (ln)” value (30 °C) does the source give for GGGUAGCAAUAUUACGGCAA here?
Answer: -0.369 ± 0.24

Question: And the “self-splicing fitness (ln)” value (37 °C)?
Answer: -0.33 ± 0.28

Question: Which “self-splicing fitness (ln)” value (30 °C) does the source give for GGGUAGCAAUAUUACGGGCC here?
Answer: -2.03 ± 0.38

Question: With GGGUAGCAAUAUUACGGGCG as the sequence, how does the “self-splicing fitness (ln)” value (30 °C) read?
Answer: -0.346 ± 0.098

Question: And the “self-splicing fitness (ln)” value (37 °C)?
Answer: -0.12 ± 0.13

Question: What does the source list for GGGUAGCAAUAUUACGGUGU?
Answer: self-splicing fitness (ln) (30 °C): -1.09 ± 0.095; self-splicing fitness (ln) (37 °C): -0.365 ± 0.12

Question: Which results are given for GGGUAGCAAUAUUACGUACA?
Answer: self-splicing fitness (ln) (30 °C): -1.34 ± 0.2; self-splicing fitness (ln) (37 °C): -0.763 ± 0.21

Question: Which results are given for GGGUAGCAAUAUUACGUACG?
Answer: self-splicing fitness (ln) (30 °C): -0.676 ± 0.23; self-splicing fitness (ln) (37 °C): -0.536 ± 0.29

Question: Which results are given for GGGUAGCAAUAUUACGUAGU?
Answer: self-splicing fitness (ln) (30 °C): -2.23 ± 0.085; self-splicing fitness (ln) (37 °C): -0.762 ± 0.093

Question: With GGGUAGCAAUAUUACGUCUU as the sequence, how does the “self-splicing fitness (ln)” value (30 °C) read?
Answer: -0.106 ± 0.1

Question: What about the “self-splicing fitness (ln)” value (37 °C) of the same sequence?
Answer: 0.268 ± 0.14

Question: For GGGUAGCAAUAUUACGUUUC, which “self-splicing fitness (ln)” value (30 °C) is on record?
Answer: -2.16 ± 0.12

Question: What about the “self-splicing fitness (ln)” value (37 °C) of the same sequence?
Answer: -0.68 ± 0.15

Question: For GGUAAGCAAUAUUACGAACC, which “self-splicing fitness (ln)” value (37 °C) is on record?
Answer: -1.64 ± 0.42

Question: Which “self-splicing fitness (ln)” value (30 °C) does the source give for GGUAAGCAAUAUUACGAAUU here?
Answer: -1.04 ± 0.11

Question: What about the “self-splicing fitness (ln)” value (37 °C) of the same sequence?
Answer: -0.205 ± 0.14

Question: With GGUAAGCAAUAUUACGACAG as the sequence, how does the “self-splicing fitness (ln)” value (30 °C) read?
Answer: -2.56 ± 0.29

Question: And the “self-splicing fitness (ln)” value (37 °C)?
Answer: -1.99 ± 0.44

Question: Which “self-splicing fitness (ln)” value (30 °C) does the source give for GGUAAGCAAUAUUACGACUA here?
Answer: 0.407 ± 0.12

Question: What about the “self-splicing fitness (ln)” value (37 °C) of the same sequence?
Answer: -0.574 ± 0.12

Question: With GGUAAGCAAUAUUACGAGCU as the sequence, how does the “self-splicing fitness (ln)” value (30 °C) read?
Answer: -3.03 ± 0.35

Question: What about the “self-splicing fitness (ln)” value (37 °C) of the same sequence?
Answer: -1.36 ± 0.25

Question: Which results are given for GGUAAGCAAUAUUACGAGUA?
Answer: self-splicing fitness (ln) (30 °C): -2.4 ± 0.21; self-splicing fitness (ln) (37 °C): -1.03 ± 0.14

Question: For GGUAAGCAAUAUUACGAUGG, which “self-splicing fitness (ln)” value (30 °C) is on record?
Answer: -3.83 ± 0.39

Question: And the “self-splicing fitness (ln)” value (37 °C)?
Answer: -2.64 ± 0.33

Question: What does the source list for GGUAAGCAAUAUUACGCAAA?
Answer: self-splicing fitness (ln) (30 °C): -2.37 ± 0.22; self-splicing fitness (ln) (37 °C): -1.15 ± 0.17

Question: With GGUAAGCAAUAUUACGCAGU as the sequence, how does the “self-splicing fitness (ln)” value (30 °C) read?
Answer: -1.51 ± 0.17

Question: What about the “self-splicing fitness (ln)” value (37 °C) of the same sequence?
Answer: -1.55 ± 0.24

Question: With GGUAAGCAAUAUUACGCAUA as the sequence, how does the “self-splicing fitness (ln)” value (30 °C) read?
Answer: -1.19 ± 0.15

Question: What about the “self-splicing fitness (ln)” value (37 °C) of the same sequence?
Answer: 0.0315 ± 0.17

Question: Which “self-splicing fitness (ln)” value (30 °C) does the source give for GGUAAGCAAUAUUACGCGCC here?
Answer: -2.99 ± 0.33

Question: What about the “self-splicing fitness (ln)” value (37 °C) of the same sequence?
Answer: -1.48 ± 0.29

Question: With GGUAAGCAAUAUUACGCUCA as the sequence, how does the “self-splicing fitness (ln)” value (30 °C) read?
Answer: -0.326 ± 0.26

Question: And the “self-splicing fitness (ln)” value (37 °C)?
Answer: -0.105 ± 0.48

Question: With GGUAAGCAAUAUUACGCUGC as the sequence, how does the “self-splicing fitness (ln)” value (30 °C) read?
Answer: -2.94 ± 0.2

Question: For GGUAAGCAAUAUUACGCUUC, which “self-splicing fitness (ln)” value (30 °C) is on record?
Answer: -4.14 ± 0.42

Question: And the “self-splicing fitness (ln)” value (37 °C)?
Answer: -1.58 ± 0.35

Question: With GGUAAGCAAUAUUACGGAAG as the sequence, how does the “self-splicing fitness (ln)” value (30 °C) read?
Answer: -3.03 ± 0.18

Question: What about the “self-splicing fitness (ln)” value (37 °C) of the same sequence?
Answer: -2.56 ± 0.26

Question: For GGUAAGCAAUAUUACGGAGC, which “self-splicing fitness (ln)” value (30 °C) is on record?
Answer: -2.99 ± 0.2

Question: And the “self-splicing fitness (ln)” value (37 °C)?
Answer: -1.98 ± 0.22

Question: For GGUAAGCAAUAUUACGGCAA, which “self-splicing fitness (ln)” value (30 °C) is on record?
Answer: -0.143 ± 0.12

Question: What about the “self-splicing fitness (ln)” value (37 °C) of the same sequence?
Answer: -0.18 ± 0.15

Question: For GGUAAGCAAUAUUACGGCCG, which “self-splicing fitness (ln)” value (30 °C) is on record?
Answer: -0.712 ± 0.12

Question: And the “self-splicing fitness (ln)” value (37 °C)?
Answer: -0.544 ± 0.17

Question: With GGUAAGCAAUAUUACGGCUU as the sequence, how does the “self-splicing fitness (ln)” value (30 °C) read?
Answer: -0.104 ± 0.075

Question: What about the “self-splicing fitness (ln)” value (37 °C) of the same sequence?
Answer: 0.352 ± 0.11

Question: Which “self-splicing fitness (ln)” value (30 °C) does the source give for GGUAAGCAAUAUUACGGUCU here?
Answer: 0.187 ± 0.083

Question: What about the “self-splicing fitness (ln)” value (37 °C) of the same sequence?
Answer: -0.0802 ± 0.087

Question: For GGUAAGCAAUAUUACGUAAC, which “self-splicing fitness (ln)” value (30 °C) is on record?
Answer: -1.86 ± 0.13

Question: And the “self-splicing fitness (ln)” value (37 °C)?
Answer: -0.278 ± 0.15

Question: For GGUAAGCAAUAUUACGUAAU, which “self-splicing fitness (ln)” value (30 °C) is on record?
Answer: -1.21 ± 0.096

Question: And the “self-splicing fitness (ln)” value (37 °C)?
Answer: -0.781 ± 0.12

Question: For GGUAAGCAAUAUUACGUACA, which “self-splicing fitness (ln)” value (30 °C) is on record?
Answer: -0.648 ± 0.1

Question: What about the “self-splicing fitness (ln)” value (37 °C) of the same sequence?
Answer: 0.294 ± 0.14

Question: Which results are given for GGUAAGCAAUAUUACGUAGG?
Answer: self-splicing fitness (ln) (30 °C): -2.78 ± 0.19; self-splicing fitness (ln) (37 °C): -3.5 ± 0.28

Question: Which “self-splicing fitness (ln)” value (30 °C) does the source give for GGUAAGCAAUAUUACGUCUC here?
Answer: -1.04 ± 0.13

Question: What about the “self-splicing fitness (ln)” value (37 °C) of the same sequence?
Answer: -1.27 ± 0.16

Question: Which results are given for GGUAAGCAAUAUUACGUCUG?
Answer: self-splicing fitness (ln) (30 °C): -1.85 ± 0.14; self-splicing fitness (ln) (37 °C): -1.51 ± 0.1

Question: For GGUAAGCAAUAUUACGUUUC, which “self-splicing fitness (ln)” value (30 °C) is on record?
Answer: -3.52 ± 0.27

Question: What about the “self-splicing fitness (ln)” value (37 °C) of the same sequence?
Answer: 0.249 ± 0.15

Question: Which results are given for GGUCAGCAAUAUUACGAACA?
Answer: self-splicing fitness (ln) (30 °C): -0.818 ± 0.14; self-splicing fitness (ln) (37 °C): -0.749 ± 0.17

Question: With GGUCAGCAAUAUUACGACAA as the sequence, how does the “self-splicing fitness (ln)” value (30 °C) read?
Answer: -0.264 ± 0.062

Question: And the “self-splicing fitness (ln)” value (37 °C)?
Answer: 0.179 ± 0.093

Question: Which results are given for GGUCAGCAAUAUUACGACCG?
Answer: self-splicing fitness (ln) (30 °C): -1.89 ± 0.17; self-splicing fitness (ln) (37 °C): -1.26 ± 0.19

Question: With GGUCAGCAAUAUUACGAGAC as the sequence, how does the “self-splicing fitness (ln)” value (30 °C) read?
Answer: -2.27 ± 0.23

Question: And the “self-splicing fitness (ln)” value (37 °C)?
Answer: -1.29 ± 0.31

Question: For GGUCAGCAAUAUUACGAGGA, which “self-splicing fitness (ln)” value (37 °C) is on record?
Answer: -1.73 ± 0.36

Question: With GGUCAGCAAUAUUACGAUUC as the sequence, how does the “self-splicing fitness (ln)” value (30 °C) read?
Answer: -0.716 ± 0.079

Question: What about the “self-splicing fitness (ln)” value (37 °C) of the same sequence?
Answer: -0.325 ± 0.11

Question: Which “self-splicing fitness (ln)” value (30 °C) does the source give for GGUCAGCAAUAUUACGCAUC here?
Answer: -0.704 ± 0.091

Question: And the “self-splicing fitness (ln)” value (37 °C)?
Answer: -0.125 ± 0.1

Question: With GGUCAGCAAUAUUACGCCAU as the sequence, how does the “self-splicing fitness (ln)” value (30 °C) read?
Answer: -3.36 ± 0.3

Question: And the “self-splicing fitness (ln)” value (37 °C)?
Answer: -0.853 ± 0.17

Question: Which results are given for GGUCAGCAAUAUUACGCGCA?
Answer: self-splicing fitness (ln) (30 °C): -0.219 ± 0.13; self-splicing fitness (ln) (37 °C): -0.27 ± 0.12

Question: With GGUCAGCAAUAUUACGCGUU as the sequence, how does the “self-splicing fitness (ln)” value (30 °C) read?
Answer: -0.112 ± 0.084

Question: What about the “self-splicing fitness (ln)” value (37 °C) of the same sequence?
Answer: 0.0966 ± 0.13

Question: With GGUCAGCAAUAUUACGCUCG as the sequence, how does the “self-splicing fitness (ln)” value (30 °C) read?
Answer: -0.0238 ± 0.095

Question: What about the “self-splicing fitness (ln)” value (37 °C) of the same sequence?
Answer: 0.341 ± 0.12

Question: With GGUCAGCAAUAUUACGCUCU as the sequence, how does the “self-splicing fitness (ln)” value (30 °C) read?
Answer: -1.58 ± 0.2

Question: What about the “self-splicing fitness (ln)” value (37 °C) of the same sequence?
Answer: 0.397 ± 0.34

Source: the supplement of paper PMC7877785
